In patent US11957762B2, “Immune tolerant and non-immune tolerant elastin-like recombinant peptides and methods of use” (University of Utah Research Foundation, priority 2015, dated 2024):
Entries after “also recorded” stand apart in the source; their conditions may differ. Read-outs that look alike come from different tables or passages of the source.

Columns and labels:
regular 4T1-luc cells = test: Cytotoxicity, regular 4T1-luc cells; format: cell-based, murine
Protocol: (§1) Cytotoxicity studies. The cytotoxicity was measured as previously described (Zhao, et al; Mol. Pharm, 2014; 11(8):2703-12). The incubation time was 72 hours. 4T1-lu mammosphere cells were generated as the previously described (Zhao, et al; Mol. Pharm, 2014; 11(8):2703-12).

[1] = Tissue distribution of Sali-ABA in 4T1-luc tumored mice; settings: mouse, in vivo, 24 h
Protocol: (§2) Pharmacokinetics and biodistribution study. Sali-ABA concentrations in blood and tissues were analyzed, and the concentrations were analyzed as previously described (Zhao, et al; Mol. Pharm, 2014; 11(8):2703-12).
The aforementioned slow clearance and particle size of iTEP-MPBH-ABA-Sali could enable the conjugate to leverage the EPR effect and, therefore, more efficiently accumulate in tumors. […] Tumors and all following organ samples were collected at 24 hours post administration. The quantities of Sali-ABA were expressed as percentage of initial dose normalized by weight of organs, ID %/gram. The data were analyzed by one-way ANOVA. P-value is shown in the figure and * indicates a significant difference. At the same time, there was a reduction of Sali-ABA accumulation in the heart when iTEP-MPBH-ABA-Sali NP was compared with free Sali, although the difference was not statistically significant (0.57±0.18 ID %/gram vs 0.86±0.11 ID %/gram, FIG. 11C). The data were analyzed by one-way ANOVA. The reduction may benefit the toxicity profile of the NP as the heart is an organ sensitive to Sali (Bastianello, et al., J S Afr Vet Assoc, 1996; 67(1):38-41). […] The data were analyzed by one-way ANOVA. P-values are shown in the figure and * indicates a significant difference.

[2] = Hydrodynamic diameter by dynamic light scattering (DLS); format: physicochemical; settings: 25 μM in PBS at 37° C.
Protocol: Characterization of the size of iTEPB-pOVA and iTEPB-iTEPA-pOVA fusions. The particle size distribution of the iTEP fusions was determined by dynamic light scattering (DLS) using a Zetasizer Nano-ZS instrument (Malvern Instruments, Malvern, UK) as previously described.^(29) The fusions were prepared at 5 μM and 25 μM in PBS and equilibrated at 37° C. for the measurement. The reported results represented the average particle size by number.
Dynamic light scattering (DLS) measurement. The measurement was carried out as previously described. iTEP, iTEP-MPBH-ABA-Sali conjugate, or PTX NP were measured at 25 μM in PBS at 37° C. using a Malvern Zetasizer Nano system (Malvern, Chester County, PA, USA).
Characterization of hydrodynamic diameters of iTEP-vaccine fusions. Hydrodynamic diameters of iTEP-vaccine fusions were determined by dynamic light scattering (DLS) using a Zetasizer Nano-ZS instrument (Malvern Instruments, Malvern, UK) as previously described (Zhao et al., Mol Pharm, 2014; 11(8):2703-12). The samples were resuspended at concentrations of 5, 25, 50, and 100 μM in PBS and sat at room temperature overnight before measurement. Some samples were kept in 5% C02 at 37° C. for 16 h before DLS measurement. Hydrodynamic diameter results of the sample of 5 μM concentration were reported because they were not affected by the used sample concentrations. Hydrodynamic diameters were presented using the size-by-number distribution approach. Z-average values and sizes-by-intensity data, however, were also reported.

[3] = Pharmacokinetics (plasma Sali-ABA) after intravenous administration; design: species or system mice; settings: mouse, in vivo
Protocol: as §2
Results. The pharmacokinetics of Sali-ABA and iTEP-MPBH-ABA-Sali were compared after they were administered intravenously to mice at a dose of 20 mg/Kg Sali-ABA equivalent. Plasma concentrations of Sali-ABA after the administration of either formulation were monitored for up to 24 hours (FIG. 11A). The temporal changes of the concentrations were fitted into a two-compartment pharmacokinetics model.

[4] = tested on: mammosphere 4T1-luc cells; test: Cytotoxicity, mammosphere 4T1-luc cells (CSCs); format: cell-based, murine
Protocol: as §1

[5] = tested on: 4T1-luc orthotopic tumors; test: Tumor growth, metastasis and survival study; format: in vivo, Balb/c mice
Protocol: Tumor growth study. Balb/c mice were inoculated subcutaneously with 10^6 4T1-luc cells in 50 μL PBS at the #9 mammary glands. At the seventh day after inoculation when the volumes of all tumors reached or exceeded 100 mm^3, the mice were randomly assigned into groups as described in FIGS. 12 and 13. The dosing and dosing schedules are as following: • 1. PBS control (three day interval); Sali-ABA (20 mg/Kg BW, three-day interval), • 2. iTEP-MPBH-ABA-Sali NP (20 mg/Kg BW, three-day interval), • 3. PTX NP (10 mg/Kg BW, three-day interval), • 4. PTX NP and iTEP-MPBH-ABA-Sali combination, iTEP-MPBH-ABA-Sali NP on the first day (20 mg/Kg BW), PTX NP on the second day (10 mg/Kg BW), then two-day interval.
Seven total doses were administered intravenously. The length and width dimensions of tumors were measured with a caliper every other day. Tumor volumes were estimated using the formula: Tumor Volume=(length×width^2/2) (Zhang et al., Biomaterials, 2012; 33(2):679-91). Also, mouse body weight was recorded the same day when the tumor size was measured. The treatments of PTX NP and the combinational therapy were done after the results of the first three treatment groups were obtained.
Moreover, in order to monitor metastasis, bioluminescence signals released from 4T1-luc cells were monitored as previously described (Tao et al., BMC Cancer, 2008; 8(1):228). Specifically, experimental mice were injected intraperitoneally with 100 μl of D-luciferin (15 mg/ml) at predetermined time points (twice each week, 3-4 days interval). At 15 minutes after luciferin injection, the mice were imaged under anesthesia in a Xenogen IVIS 200 biophotonic imager (PerkinElmer, Inc., MA, USA). The bioluminescence intensity was denoted using photon emission from the subject or radiance in the unit of photons/sec/cm^2/sr (steradian). […] The overall survival time was counted as days between tumor inoculation and mouse sacrifice. Metastasis-free survival and overall survival were analyzed by the Kaplan-Meier method, and the median survival of each groups were compared using the Log-rank test with GraphPad V5.0.

[6] = In vitro Sali-ABA release assay; format: physicochemical; settings: neutral pH (PBS), up to 100-hour monitoring
Protocol: In vitro Sali-ABA release assay. The release of Sali-ABA from iTEP-MPBH-ABA-Sali NP was measured after the NP was incubated in PBS (pH=7.4) or 0.1M sodium acetate/acetic acid buffer (pH=5) at 37° C. Multiple repeats of each mixture were kept in separate Eppendorf tubes and shaken at 100 rpms at 37° C. At predetermined time points, free Sali-ABA in one tube of sample was determined by HPLC based on a standard curve of Sali-ABA. The standard curve was established at 280 nm. The HPLC setup was the same as the described herein.
The relationship of the percentage of Sali-ABA release (F) with time (t) was fitted using the following equation and GraphPad V5.0. F%,released=100[…]

Molecule	IC50 (regular 4T1-luc cells; Mus musculus, 4T1-Luc, 72 h)	Sali-ABA accumulation in the heart [1]	cytotoxicity, times lower than Sali-ABA-MPBH alone (regular 4T1-luc cells; regular 4T1-luc cells)	IC50 (regular 4T1-luc cells; regular 4T1-luc cells, 72 hours, read-out: IC50)	hydrodynamic diameter (DLS) [2]	elimination half-life, times longer than free Sali-ABA administration [3]	times more toxic to mammosphere 4T1-luc cells (CSCs) than to regular 4T1-luc cells [4]	IC50 ([4]; mammosphere 4T1-luc cells, 72 hours)	median overall survival ([5]; days after tumor inoculation)	development of metastasis in treated mice ([5]; mouse, in vivo, listed as iTEP-MPBH-ABA-Sali NP)	inhibition of primary tumor growth ([5]; seven intravenous doses)	release at the neutral pH [6]
CC[C@@H](C(=O)[C@@H](C)[C@@H](O)[C@H](C)[C@@H]1O[C@@H]([C@@H](CC)C(=O)O)CC[C@@H]1C)[C@H]1O[C@]2(C=C[C@@H](O)[C@]3(CC[C@@](C)([C@H]4CC[C@](O)(CC)[C@H](C)O4)O3)O2)[C@H](C)C[C@@H]1C [Sali, Salinomycin, reference compound]	4.4 µM	0.86±0.11 ID %/gram	–	–	–	–	–	–	–	–	–	–
iTEP-MPBH-ABA-Sali: conjugate of hydrophilic iTEP (SEQ ID NO: 58) with Sali-ABA-MPBH, self-assembled into a NP (conjugate, conjugated to Sali via ABA-MPBH linker) GGAGVPGGAGVPGGAGVPGGAGVPGGAGVPGGAGVPGGAGVPGGAGVPGGAGVPGGAGVPGGAGVPGGAGVPGGAGVPGGAGVPGGAGVPGGAGVPGGAGVPGGAGVPGGAGVPGGAGVPGGAGVPGGAGVPGGAGVPGGAGVPGGAGVPGGAGVPGGAGVPGGAGVPGGAGVPGGAGVPGGAGVPGGAGVPGGAGVPGGAGVPGGAGVPGGAGVPGGAGVPGGAGVPGGAGVPGGAGVPGGAGVPGGAGVPGGAGVPGGAGVPGGAGVPGGAGVPGGAGVPGGAGVPGGAGVPGGAGVPGGAGVPGGAGVPGGAGVPGGAGVPGGAGVPGGAGVPGGAGVPGGAGVPGGAGVPGGAGVPGGAGVPGGAGVPGGAGVPGGAGVPGGAGVPGGAGVPGGAGVPGGAGVPGGAGVPGGAGVPGGGVLPGVGGVLPGVGGVLPGVGGVLPGVGGVLPGVGGVLPGVGGVLPGVGGVLPGVGGVLPGVGGVLPGVGGVLPGVGGVLPGVGGVLPGVGGVLPGVGGVLPGVGGVLPGVGGVLPGVGGVLPGVGGVLPGVGGVLPGVGGVLPGVGGVLPGVGGVLPGVGGVLPGVGGVLPGVGGVLPGVGGVLPGVGGVLPGVGGVLPGVGGVLPGVGGVLPGVGGVLPGVGGVLPGVGGVLPGVGGVLPGVGGVLPGVGGVLPGVGGVLPGVGGVLPGVGGVLPGVGGVLPGVGGVLPGVGGVLPGVGGVLPGVGGVLPGVGGVLPGVGGVLPGVGGVLPGVGGVLPGVGGVLPGVGGVLPGVGGVLPGVGGVLPGVGGVLPGVGGVLPGVGGVLPGVGG	–	–	2.6 times	42.2 µM	51.2±18.2 nm	35 times	about eight	5.8 µM	39 days	No mice in the NP-treated group developed metastasis; also recorded: zero metastasis	slowed primary tumor growth	no detectable release
